Measured values as given in the nanobody polyreactivity screen of Harvey et al. (2022).

Assay: yeast display, Sf9 membrane polyspecificity reagent, FACS + sequencing; frameworks hold sequencing errors
Method in brief: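 Galactose-induced (36–48 hours) yeast carrying a synthetic nanobody display library were exposed to 10% biotinylated, detergent-solubilized Sf9 membrane reagent at 4 °C for 1 hour. FACS followed streptavidin microbead enrichment, using low and high (top ~1%) gates for expression (anti-HA) and reagent binding (streptavidin). Colony PCR, MiSeq 2 × 250 sequencing and CDR-length filtering followed. Labels for polyreactivity reflect the gate of origin.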

Row | Sequence | polyreactivity (PSR sort gate)
1 | QVQLVESGGGLVQAGGSLRLSCAASGRTFRYYAMGWYRQAPGKERELVAAITSGGSTYYADSVKGRFTISRDNAKNTVYLQMNSLKPEDTAVYYDYWGQGTQVTVSS | low polyreactivity
2 | QVKLVESGGGIVQAGGSLRLSCAASGIIFARNAMGCYRQAPGKERELVAGINGGRKNYADSVKGSFTISRDNAKNTVYLQMNSLKPEDSAVYYCAARNKGTLYRYGYWGQGTQVTVSS | high polyreactivity
3 | QVQLVESGGGLVQAGGSLRLSCAASGITFDDYVMGWYRQAPGKERELVAAITRSGGRTYYADSVKGRFTISRDNAKNTVDLQMNSLKPEVTAVYYCAARHRDNRFDYWGQGTQVTVSS | high polyreactivity
4 | QVQLVESGGGLVQAGGSLRLSCAASGRIFSLNTMGWYRQAPGKERELVATITKRGGNTYYADSVKGRFTISRDNAKNTVYLQMNSLKPEDTAVYYCAVPRSITYRYGYWGQGTQVTVSS | high polyreactivity
5 | QVHLVESGGGLVQAGGSLRLSCAASGLTFLYNTMGWYRQAPGKEREFVAAITISGGTTYYADSVKGRFTISRDNAKNTVYLQMNSLKREDTAVYYCAADYNSTERGTNMDYWGQGTQVTVSS | low polyreactivity
6 | QDQLVESGGGLVQAGGSLRLSCAASGSTFTFYVMGWYRQAPGKERELVAAITASGGSTYYADSVKGRFTISRDNAKNTVYLQMNSLKPEDTAVYYCAARPTYYYSRTYDYWGQGTQVTVSS | low polyreactivity
7 | QVHHVESAGGLVQAGGSLRLICAASGSTFDYYAMGWYRQEPGKERELLAGIDSAGSTNYADSVKGRFTISRDNAKNTVYLQMNSVKTGTYRGLYCNVGKTITTYAFPTFDYWGQGSQVTVSS | low polyreactivity
8 | QVQVVESGGGLVKAAGSLGLSCSASGLNFRFYTMGWYRQAPGKERELVAAISTSGGSTYYADSVKGRFTISRDNAKNNVFLQMNSLKPEDTAVYYCIAVYAFNGYDYWGQGTQVTVSS | low polyreactivity
9 | QVQLVESGGGLVQAGGSLRLSCAASGRIFLSYAMGWYRQAPGNEREFVAAITSSGGSTSYADSVKGRFTISRDNAKNTVYLQMNSLKPEDTAVYYCNDRAYIFGQMKYDYWGQGTQVTVSS | low polyreactivity
10 | QFQLVESAVVLVQAGGSLRLSCAASGGIFGSYAMGWYRQAPGKEMEFVAAIRYGSGSQYYADSVKGRFTISRDNAKNTVYLQMNSLKPEDTAVYYCATEYWGVYGYGFIYDYWGQGTQVTVSS | low polyreactivity
11 | QGQLVESGGGLVQAGGCLRLSCAASGGTFDYNAMGWYRQAPGKERELVAAITSGASTYYADSVKGRFTISRDNAKNTVYLQMNSLKPQDTAVYYCAKGPTPGYDYWGQGTQVTVSS | low polyreactivity
12 | QVQLVESGGGLVQAGGRLRLSCAASGFKYAMGWYRQGPGKDRELVAAISSGGITSYADSVKGRFTISRDNAKNTVYLQMNSLKPEDTAVYYCNARLRHSQYAYYYWGQGTQVTVSS | high polyreactivity
13 | QVQLVESGGRLVQAGGRLPLSCAASGSIFTGNAMGWYRQAPGKERELVAAITQRGGRTYYADSVKGRFTISRDNSKNTVYLQMNSLKPEDTAVYYCAADPPGYVYGKRYYWGQGTQVTVSS | high polyreactivity
14 | QVQLVESGGGLVQAGGSLRLSCAASGRTFNYYARGWYRQAPGKERELVAAISKRGGSTYYADSVKGRFTISRDNAKNTVYLQMNSLKPEDTAVYYCNAAQSVELGYDYWGKGTQVTVSS | high polyreactivity
15 | QVQLVESGGGLGQAGGSLRLSCAASGSTFTRYGMGWSRQAPGKERELVAAITTSGSSTYYADSVKGRFTISRDNAKNTVYLQMNSLKPEDTAVYYCAADWSSWGFDYWGQGTQVTVSS | low polyreactivity
16 | QVQLQESGGGLVQAGGSLRLSCAASGSIFKVVDMGLYRQAPAKEREFVATIGEGGNTYYADSVKGRFTISRDNAKNTVYLQMNSLKPEDTAVYYCNVDIGVYAYESDYWGQGTQVTVSS | low polyreactivity
17 | QVQLVETGGGLVQAGGSLRLSCAASGFTFTVYATGWYRQAPGKERELVAAIRWSGGSTSYADSVKRRFTISRDNAKNTVYLQMNSLKPEDTAVYYCNARISDAHYQSNYFLVLYDYWGQGTQVTVSS | low polyreactivity
18 | QVQLVESGGGLVQAGGSLRLSCAASGRTFYYYAMGWYRQAPGKERELVAAISRSGGITYYADSVKGRFTISRDNAKNTVYLQMNSLKPEDTAVYYCAADAWFSLRYAPRSYAYGYWGQGTQVTVSS | low polyreactivity
19 | QVQLVESGGGLVQAGGSLRLSCAASGSTFADYAMGWYRQAPGKERELVAAITGDGGNTYYADSVKGRFTISRDTAKNTVYLQMTSLKPEDTAVYYCAAEHESGAYYYWGLGTQVTVSS | high polyreactivity
20 | QVQLVESGGGLVQAGGSLRLSCAASGFIFGAYAMGWYRQAPGKERELVAALSSRGGNTYYADSVKGRFTISRDNAKNTVYLQMNSLKPEDTAVYYCNAVGYARYLYVPPPYDYWGQGTQVTVSS | high polyreactivity
21 | QVQLVESGGGLVQAGGSLRLSCAASGFTFVYYNMGWYRQAPGKERELVAAITQSGGRTYYADSVKGRFTISRDNAKNTVYLQMNCLKPEDTAVYYCAARLWGKRDYRMDYWGQGSQVTVSS | high polyreactivity
22 | QVQLVQSVVGLVQAGRRLRLSSAASGRIFFYNAMGWYRHAPGKERELVAGISRSGTSTYYADSVKGRFTISRDNAKNTVYLHMNSLKPEDTAVYYCAAGTFYYWLSYDYWGQGTQVTVSS | low polyreactivity

Row | Sequence | polyreactivity (PSR sort gate)
23 | QVQLVESGGGLVQAGGSLRLSCAASGRIFYIHAMGWYRQAPGKERELVAAITSNGGSTYYADSVKGRFTISRDNAKNTVYLQMNCLKPEDTAVYYCAARRYKVSRTSYGYGYWGQGTQVTVSS | high polyreactivity
24 | QVQLVESGGGLVQAGGSLRLSCAASGSIIPLYAMGWYRQAPGKERELVAAISRRGGSTYYADSVKGRFTISRDNAKNTVYLQMNSLKPEDTAVYYCSVDSPSPSRGPRFYYWGQGTQVTVSS | high polyreactivity
25 | QVQLVESGGGLVQAGGSLRISCAASGSIFRIYAMGWYRQAPGKERELVAAISWTGGSTYYADSVKGRFSISRDNAKNTVYLQMNSMKPDDTAVYYCASRPRYKFSAYEYWGQGTQVTVSS | high polyreactivity
26 | QVHLVESGGGLVQAGGSLRLSCAASGSTFKRYAMGWYRQAPGKERELVASISQRGGTTYYADSVKGRFTISRDNAKNTVYLQMNSLKPEDTAVYYCANGFGWTRTIYDYWGQGTQVTVSS | high polyreactivity
27 | QEQLVESGGGLVQAGGSLRLSCDASGRTLSRYTMGWYRQPPGQETELVAAISTSGSTYYADSVKGRFTISRDNAKNPVYLQMNSVKPDDTGVYYCNAVGLYLHYATGYDYWGQGRQVTVSS | high polyreactivity
28 | QVQLVESGGGLVQAGGSLRLSCAASGSTFYLNAMGWYRQAPGKERELVAAINSGDSTNYADSVKGRFTISRDNAKNSVYLQMNSLKPEDNAVYYCARDRYPSEGDYWGQGTQVTVSS | low polyreactivity
29 | QVQLVESGGGLVQAGGSLRLSCAASGIIFTSNTMGWYRQAPGKVREFVASINWNGSSTYADSVKGRFTISRDNAKYTVYLQMNSLKPEDTAVYSCNADYNRNSVQFSLYDYWGQGTQVTVSS | low polyreactivity
30 | QVQLVESGGGLVQAGGSLRLSCAASGIIFDDYAMGWYRQAPGKERELVAAITTSGGRTYYADSVKGRFTISRDNAKNTVYLQMNSLKPEDTAVYYCATRRGRAYRWMNYWGQGTQVTVSS | high polyreactivity
31 | QVHLVESGGGLVQAGVSLRLSCAASGSTFDYYAMGWYIQAPGTERELVAGITGGGSTYYADSVKGRFTISRDNAKNTVYLQMNSLKPEDTAVYYCNAGPAQRYDYWGQGTQVTVSS | low polyreactivity
32 | QVQLVESGGGLVQAGGSLRLSCAACGRTFVSYAMGWYRQAPGKERELVAAITNAGSTYYADSVKGRFTISRDNAKNTVYLQMNSLKPEDTAVYYCAATYWDYWGYGYDYWGQGTQVTVSS | high polyreactivity
33 | QVQLVESGGGLVQAGGSLRLSCAASGRIFYYNGMGWYRQAPGKERELVAAISRGGSTYYADSVKGRFTISRDNAKNTVYLQMNSLKPEDTAVYYCAARWKPPYWGRYYYWGQGTQVTVSS | high polyreactivity
34 | QVQLVESGGGLVQAGGSLRLSCAASGIIFQNYDMGWYRQAPGKERELVAAITSGVSTYYADSVKGRFTIARYNAKNTVYLQMNSLKPEDTAVYYCAVVGGFRWIRMEYWGQGTQVTVSS | low polyreactivity
35 | QVQLVESGGGLVQAGGSLRLSCAASGSIFYAYAMGWYRQAPGKERELVATITSGGSTNYADSVKGRFTISRDNAKNTVYLQMNSLKPEDTAVYYCAVDISYSLGGGFGYDYWGQGTQVTVSS | low polyreactivity
36 | QVQLVESGGGLVQAGVSLRLSCAASGFIFGLYVMGWYRQSPGKERELVAGITWTGGTTYYADSVKGRFTISRDNAKNTVYLQMNSLKPEDTAVYYCATRNYAVVPSVRREGYYWGQGTQVTVSS | low polyreactivity
37 | QVQLGDSGGGLVQAGGSLRLSCAASGFNFRTNTMGWYRQEPGKERELVAAITRSGGSTYYADSVKGRFTISSDNAKYTVYLQMNSLKPEDSAVYYCAKEYRRVVADFGYWGQGTQVTVSS | high polyreactivity
38 | QVQLVESGGCLVQAGGRLRLSCAASGYIFDRNAMGWYRQAPGTERELVAAITKRGGITYYADSVKGRFTISRDNAKFSGYLQMNSLKPEDTAVYYCNALARSSRYDYWGQGTQVTVSS | low polyreactivity
39 | QVQLVESGGGLVQAGGSLRLSCAASGNTFTWYTIGWYRQAPGKERELVAVSTSDGSTYYADSVKGRFTISRDNAKHTVYLQMNSLKPEDTAVYYCTAGGGTNYGSGYWYGYYYWGQGTQVTVSS | low polyreactivity
40 | QVQLVESGGGLVQAGGSLRLSCAASGSIFTSYAVMGWYRQAPGKERELVAVITGGGITTYADSVKGRFTISRDNAKNTVYLQMNSLKPEDTAVYYCATDGWYHSEYDYWGQGTQVTVSS | low polyreactivity
41 | QVQLVESGGGLVQAGGSLRLSCAASGSTILSNAMGWYRQAPGKERELVADITSGGSTYYADSVKGRFTISLDNAKNTVYLQMNSLKQEDTAVYYCAVRYYLRRYDYWGQGTQVTVSS | low polyreactivity
42 | QVQLVESGGGLVQAGGSLRLSCAASGFTFRYYAMGWYRQAPGKERELVAAITRNGGSTYYADSVKGRFTISRDNAKHTVYLQMNSLKPEETAVYYCNRYGRQYDFYYWGQGTQVTVSS | high polyreactivity
43 | QVQLVESGGGLVQAGGSLRLSCAASGSTSLSYVKGWYRQAPGKERELVATITSSGGSTYYADSVKGRFTISRDNAKNTDYLQMNSLKQEDPAVYYCNARSYIYPFSPTSYYRYYWGQGTQVTGSS | high polyreactivity
